Assay results published in publication PMC9600179.

Target: T1, AlgR (Pseudomonas aeruginosa PAO1) (UniProt P26275)
T1 sequence: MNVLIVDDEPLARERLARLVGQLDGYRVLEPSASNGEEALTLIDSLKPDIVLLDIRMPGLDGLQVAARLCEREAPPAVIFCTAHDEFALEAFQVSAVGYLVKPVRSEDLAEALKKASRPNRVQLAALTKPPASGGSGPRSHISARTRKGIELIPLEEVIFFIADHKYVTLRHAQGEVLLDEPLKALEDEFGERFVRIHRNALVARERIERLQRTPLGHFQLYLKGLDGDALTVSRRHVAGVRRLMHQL
Test: EMSA
Details: EMSA: 10 mM Tris-HCl pH 7.4, 50 mM KCl, 5 mM MgCl2, 10% glycerol, 30 min, temperature not stated; 1 ug DIDC (poly dI-dC) with FITC probes in some assays …

Row | Sequence | binding
1 | CTGGCGATGGAAGGCACTCCAATCGAGGTCCGCAGGGCCGACCAGCGCGTCCAGCGAGAAATCGTCGAGCAAAGGGCGTCCGGCGGCCGCACGCAGGGTCAACGGCGCCAAAGGACCGCTCAGCGACGGTGCATCGGCTTCACGCACCACCAGGCTGGCCTGGCAGTCGGCAGCGATATCGGCCAGGGCCTGCTCGCGGGACTT (double strand) [pqsA CDS fragment] | binds
2 | GTACCTCGTCCGGCTCGGCGTCGGCGGTATAGCCGAGGATCAGGATCGGCGCGCGTCGCTCGCACCGTTCCTGGATGCGTATCCTGCGTGCCAGCTGATAGCCGTTCAGGCGCGGCATGTTGCAGTCGCTGATCAGCACCTCGAAGCGCTCGTCGGCCCAGAGCTCCAGCGCCA (double strand) [rocsS2 CDS fragment] | binds
3 | CGGGTCTTCGTAGGCGTAGCGGGTGCTGCCGGCCGGGCCGCGCACCGTCGTCGCATTGCCCCGTTCGTCGCGCTCGAAGGTCCAGCGGCGCTGCATCGCGTCCTCCAGCTCGACCAGCAGCCCGGTCTCTTCGTCGACGCGCTTGCGATAGCGCGCCTTGCCCGGCGACTCCTCCTCGAGC (double strand) [tse5 CDS fragment] | binds
